The values below come from patent US20220298237A1 (KEIO UNIVERSITY, published 2022).

Assay [1] addresses T1, oligopeptide ATYPSGHLDM (SEQ ID NO: 1) (human and mouse).
T1 construct: Synthetic peptide; positions 148 to 157 of the human AQP3 polypeptide, identical in mouse; also called peptide used for immunization; oligopeptide 5
T1 peptide: ATYPSGHLDM
Nature of the assay: ELISA on peptide SEQ ID NO:1, IgG, 50% binding response (FIG. 16A). In general terms: ELISA stands for enzyme-linked immunosorbent assay.

The target of assay [2] is T2, human aquaporin 3 (AQP3) on cells (human, UniProt Q92482 1-292).
T2 construct: whole, on cells; Water channel membrane protein; also called human AQP3; AQP3 on HaCaT cells
T2 sequence (looked up): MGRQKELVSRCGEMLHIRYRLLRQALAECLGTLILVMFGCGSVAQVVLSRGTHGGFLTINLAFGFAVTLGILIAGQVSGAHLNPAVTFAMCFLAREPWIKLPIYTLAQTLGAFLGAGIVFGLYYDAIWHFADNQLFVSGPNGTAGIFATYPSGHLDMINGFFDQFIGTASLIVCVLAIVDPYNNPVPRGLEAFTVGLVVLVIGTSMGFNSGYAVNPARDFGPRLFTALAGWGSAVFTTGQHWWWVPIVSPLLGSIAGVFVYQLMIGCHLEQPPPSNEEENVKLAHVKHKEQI
Nature of the assay: fluorescence binding assay on HaCaT cells, 10 µg/mL. As to the method: HaCaT cells were reacted with each anti AQP3 antibody at concentrations of none, 1 ng/mL, 10 ng/mL, 100 ng/mL, 1 μg/mL, or 10 μg/mL at 4° C. for 1 hour. After washing the cells, a fluorescent-labeled secondary antibody was added and the reaction was allowed to occur additionally for 1 hour (at 4° C.). By measuring the fluorescence intensity, the binding property of each anti AQP3 antibody to cells was obtained.

Assay [3] has as its target T3, oligopeptide IFATYPSGHLDM (SEQ ID NO: 108).
T3 construct: Synthetic peptide, part of Loop C of AQP3
T3 peptide: IFATYPSGHLDM
Put plainly: ELISA on coated peptide. As to the method:
(§1) To determine the important amino acid residues of an epitope in Loop C involved in binding to specific AQP3 antibody clones, peptides of varying lengths were produced. The sequences of these peptides are shown in column 2 of Table 4.
(§2) The various peptides and AQP3 antibody clones were subjected to ELISA binding analyses. […] The microtiter wells (Costar 2690) were coated with 50 μL of each peptide at 4° C. overnight. The wells were washed 3 times with PBS and blocked with 100 μL of 1% BSA/PBS at 37° C. for 1 hour. Each antibody was adjusted to 1 μg/mL in 1% SBA/PBS as above then serially diluted 1:5 in 1% BSA/PBS. The blocker was discarded and the wells were incubated with 50 μL of antibodies at 37° C. for 1.5 hours. The wells were washed 3 times with PBS and mouse antibodies were detected with 50 μL of goat anti-mouse IgG (H+L) HRP conjugate (ThermoFisher 31438) (1:5,000 in 1% BSA/PBS) and rabbit antibodies were detected with 50 μL of goat anti-rabbit IgG (H+L) HRP conjugate (ThermoFisher 31462) (1:5,000 in 1% BSA/PBS) at 37° C. for 1 hour. The wells were washed 3 times with PBS and developed with 50 μL of HRP substrate at RT for 5 min then stopped with 50 μL of 2N sulfuric acid and binding was measured with a plate reader.

Assay [4] deals with T4, oligopeptide ATYPSG (SEQ ID NO: 104).
T4 construct: Synthetic peptide, part of Loop C of AQP3
T4 peptide: ATYPSG
Nature of the assay: ELISA on coated peptide. As to the method:
as §1, §2

For assay [5], the target named is T5, oligopeptide ATYPSGHL (SEQ ID NO: 102).
T5 construct: Synthetic peptide, part of Loop C of AQP3
T5 peptide: ATYPSGHL
Nature of the assay: ELISA on coated peptide. As to the method:
as §1, §2

For assay [6], the target named is T6, oligopeptide PSGHLDM (SEQ ID NO: 98).
T6 construct: Synthetic peptide, part of Loop C of AQP3
T6 peptide: PSGHLDM
Put plainly: ELISA on coated peptide. As to the method:
as §1, §2

The target of assay [7] is T7, oligopeptide AGIFATYPSGHLDM (SEQ ID NO: 106).
T7 construct: Synthetic peptide, part of Loop C of AQP3
T7 peptide: AGIFATYPSGHLDM
Put plainly: ELISA on coated peptide. As to the method:
as §1, §2

The target of assay [8] is T8, oligopeptide GIFATYPSGHLDM (SEQ ID NO: 107).
T8 construct: Synthetic peptide, part of Loop C of AQP3
T8 peptide: GIFATYPSGHLDM
Put plainly: ELISA on coated peptide. As to the method: as §1, §2

Assay [9] deals with T9, oligopeptide FATYPSGHLDM (SEQ ID NO: 109).
T9 construct: Synthetic peptide, part of Loop C of AQP3
T9 peptide: FATYPSGHLDM
Put plainly: ELISA on coated peptide. As to the method:
as §1, §2

The target in assay [10] is T10, oligopeptide GHLDM (SEQ ID NO: 100).
T10 construct: Synthetic peptide, part of Loop C of AQP3
T10 peptide: GHLDM
Put plainly: ELISA on coated peptide. As to the method:
as §1, §2

For assay [11], the target named is T11, oligopeptide SGPNGTAGIFATYPS (SEQ ID NO: 94).
T11 construct: Synthetic peptide, part of Loop C of AQP3
T11 peptide: SGPNGTAGIFATYPS
Nature of the assay: ELISA on coated peptide. As to the method: as §1, §2

The target in assay [12] is T12, oligopeptide TAGIFATYPSGHLDM (SEQ ID NO: 105).
T12 construct: Synthetic peptide, part of Loop C of AQP3
T12 peptide: TAGIFATYPSGHLDM
Nature of the assay: ELISA on coated peptide. As to the method: as §1, §2

In assay [13] the target is T13, oligopeptide TYPSGHLDM (SEQ ID NO: 96).
T13 construct: Synthetic peptide, part of Loop C of AQP3
T13 peptide: TYPSGHLDM
Put plainly: ELISA on coated peptide. As to the method: as §1, §2

The target of assay [14] is T14, oligopeptide YPSGHLDM (SEQ ID NO: 97).
T14 construct: Synthetic peptide, part of Loop C of AQP3; first diluted in DMSO
T14 peptide: YPSGHLDM
Put plainly: ELISA on coated peptide. As to the method:
as §1, §2

The target in assay [15] is T15, oligopeptide ATYPSGHLD (SEQ ID NO: 101).
T15 construct: Synthetic peptide, part of Loop C of AQP3
T15 peptide: ATYPSGHLD
Put plainly: ELISA on coated peptide. As to the method: as §1, §2

Assay [16] addresses T16, oligopeptide SGHLDM (SEQ ID NO: 99).
T16 construct: Synthetic peptide, part of Loop C of AQP3
T16 peptide: SGHLDM
Nature of the assay: ELISA on coated peptide. As to the method:
as §1, §2

Assay [17] deals with T1, oligopeptide ATYPSGHLDM (SEQ ID NO: 1). Nature of the assay: ELISA on coated peptide. As to the method: as §1, §2
For assay [18], the target named is T17, oligopeptide ATYPSGH (SEQ ID NO: 103).
T17 construct: Synthetic peptide, part of Loop C of AQP3
T17 peptide: ATYPSGH
Put plainly: ELISA on coated peptide. As to the method: as §1, §2

Assay [19] addresses T18, mouse aquaporin 3 (AQP3) on cells (mouse, UniProt Q8R2N1 1-292).
T18 construct: whole, on cells; Water channel membrane protein; also called mouse AQP3; AQP3 on PAM212 cells
T18 sequence (looked up): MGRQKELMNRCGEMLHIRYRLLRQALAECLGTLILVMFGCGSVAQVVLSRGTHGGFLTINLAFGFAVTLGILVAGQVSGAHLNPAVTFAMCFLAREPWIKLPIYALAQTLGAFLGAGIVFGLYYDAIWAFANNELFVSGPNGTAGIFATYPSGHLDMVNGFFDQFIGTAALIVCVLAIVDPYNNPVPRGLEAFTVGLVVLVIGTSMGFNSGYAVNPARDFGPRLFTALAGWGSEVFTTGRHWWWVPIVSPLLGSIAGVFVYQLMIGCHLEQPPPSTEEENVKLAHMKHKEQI
Nature of the assay: fluorescence binding assay on PAM212 cells, 10 µg/mL. As to the method:
(§3) PAM212 cells were reacted with each anti AQP3 antibody at concentrations of none, 1 ng/mL, 10 ng/mL, 100 ng/mL, 1 μg/mL, or 10 μg/mL at 4° C. for 1 hour. After washing the cells, a fluorescent-labeled secondary antibody was added and the reaction was allowed to occur additionally for 1 hour (at 4° C.). By measuring the fluorescence intensity, the binding property of each anti AQP3 antibody to cells was obtained.

Assay [20] addresses T19, oligopeptide SRGTHGGFL (SEQ ID NO: 2).
T19 construct: Synthetic peptide of AQP3 Loop A; also called Loop A peptide; control peptide
T19 peptide: SRGTHGGFL
Nature of the assay: ELISA on peptide SEQ ID NO:2 (FIG. 16B).

Assay [21] deals with T18, mouse aquaporin 3 (AQP3) on cells. Nature of the assay: cell-based or functional assay.
The target is the same in assay [22]. Nature of the assay: fluorescence binding assay on PAM212 cells, 1 ng/mL to 10 µg/mL (FIG. 17A). As to the method: as §3

“And” between values parts separate entries of the source, which are not always exact repeats. Identical values can stand only once. A value given as a limit tells only on which side of the number the result lay.

B1: SC-B6 (IgG) (antibody, V domains shown)
VH: QSVKESGGRLVTPGAPLTLTCTVSGFSLNNYAMTWVRQAPGKGLEWIGIINNDGISSTWYASWVKGRFIISKTSTTVDLKMTSLTTEDTATYFCARGGTSGYDIWGPGTLVTVSL
VL: AQGPTQTPSPVSAAVGGTVTINCQSSPSVYKNYLSWYQQKPGQPPKLLIYGASTLASGVPSRFKGSRSGTQFTLTISDVQCDDAATYYCAGGYIGSRDIFSFGGGTEVVVK
notes: also called anti AQP3 antibody SC-B6
Turning to B1, the EC50 in assay [1] is 0.01 µg/mL and ~0.06 nM. In addition, the “fold fluorescence intensity over no antibody” value is more than 2 fold in assay [2] and not below 2 fold in assay [19]. Also, the “binding signal (plate reader)” value in [3] amounted to 3.69; in assay [4] it was 0.915; in assay [5], 4; in [6], 2.23; in assay [7] it was 3.83; in assay [8], 3.79. Moreover, the “binding signal (plate reader)” value amounted to 3.87 in assay [9]; 0.097 in [10]; 2.02 in [11]; 3.96 in assay [12]; 4 in assay [13]; 3.96 in [14]. In addition, the “binding signal (plate reader)” value is 3.92 in assay [15], 0.135 in assay [16], 3.98 in assay [17] and 3.44 in assay [18]. Further, in assay [20], the binding result was “no binding”. The “decrease in H2O2 uptake in PAM212 cells against no antibody control” value in assay [21] was approximately 2 fold.

B2: SC-F8 (IgG) (antibody, V domains shown)
VH: QTVKESGGRLVTPGGSLTLTCTVSRFSLSNYAMTWVRQAPGKGLEWIGIINNDGISSTWYASWVKGRFTISKTSTTMDLKMTSLTTEDTATYFCARGGTSGYDIWGPGTLVTVSL
VL: AQVLTQTPSPVSAAVGGTVTINCQSSPSVYKNYLSWYQQKPGQPPKLLIYGASTLASGVPSRFKGSGSGTQFTLTISDVQCDDAATYYCAGGYRGSSDIFAFGGGTEVVVK
notes: also called anti AQP3 antibody SC-F8
On to B2, for which the EC50 in [1] is 0.01 µg/mL and ~0.06 nM. In addition, the “fold fluorescence intensity over no antibody” value in assay [2] was more than 2 fold; in assay [19] it was not below 2 fold. Further, the “binding signal (plate reader)” value in assay [3] is 3.91; in assay [4], 1.77; in assay [5], 3.99; in [6], 1.56; in [7], 3.92; in assay [8] it was 3.86. Further, the “binding signal (plate reader)” value in assay [9] worked out at 3.92; in assay [10], 0.06; in assay [11], 2.99; in [12], 4; in assay [13] it was 3.92; in assay [14], 3.94. In addition, the “binding signal (plate reader)” value was found to be 3.91 in assay [15], 0.071 in assay [16], 3.97 in assay [17] and 3.81 in assay [18]. Moreover, in assay [20], the binding result is “no binding”.

B3: BC-H9 (IgG) (antibody, V domains shown)
VH: QSLEESGGRLVTPGTPLTLTCTVSGFSLYTYAMGWVRQAPGKGLEWIGIINNDGISSTWYASWVKGRFTISKTSTTMDLKMTSLTTEDTATYFCARGGTSGYDIWGPGTLVTVSL
VL: AQGLTQTPSPVSAAVGGTVTINCQSGPSVYKNYLSWYQQKAGQPPKLLIYGASTLASGVPSRFKGSGSGTQFTLTISDVQCDDAATYYCAGGYRGSSDIFAFGGGTEVVVK
notes: also called anti AQP3 antibody BC-H9
B3: the EC50 in assay [1] is 0.01 µg/mL and ~0.06 nM. The “binding signal (plate reader)” value in assay [3] was found to be 3.76; in assay [4], 0.627; in assay [5], 3.9; in assay [6] it was 0.733; in [7], 2.65; in [8], 3.8. Further, the “binding signal (plate reader)” value in assay [9] worked out at 3.75; in [10] it was 0.048; in assay [11], 0.824; in assay [12] it was 3.92; in assay [13], 3.99; in assay [14], 3.94. In addition, the “binding signal (plate reader)” value in assay [15] was 3.9; in assay [16], 0.053; in assay [17] it was 3.94; in [18], 3.16. The figures for the binding result in [22] and in assay [20] were “binds” and “no binding”, respectively.

Usually EC50 stands for the concentration giving half of the maximal effect. Read a low EC50 as an effect from little substance.
